Experimental findings from CN117384291A (WUHAN ABCLONAL INC, dated 2024) are described below.

The target of this test is T1, 人SALL4蛋白 (human, UniProt Q9UJQ4 1-1053, limits assumed).
T1 construct: Endogenous SALL4 in fixed tissue sections; also called human SALL4
T1 sequence (looked up): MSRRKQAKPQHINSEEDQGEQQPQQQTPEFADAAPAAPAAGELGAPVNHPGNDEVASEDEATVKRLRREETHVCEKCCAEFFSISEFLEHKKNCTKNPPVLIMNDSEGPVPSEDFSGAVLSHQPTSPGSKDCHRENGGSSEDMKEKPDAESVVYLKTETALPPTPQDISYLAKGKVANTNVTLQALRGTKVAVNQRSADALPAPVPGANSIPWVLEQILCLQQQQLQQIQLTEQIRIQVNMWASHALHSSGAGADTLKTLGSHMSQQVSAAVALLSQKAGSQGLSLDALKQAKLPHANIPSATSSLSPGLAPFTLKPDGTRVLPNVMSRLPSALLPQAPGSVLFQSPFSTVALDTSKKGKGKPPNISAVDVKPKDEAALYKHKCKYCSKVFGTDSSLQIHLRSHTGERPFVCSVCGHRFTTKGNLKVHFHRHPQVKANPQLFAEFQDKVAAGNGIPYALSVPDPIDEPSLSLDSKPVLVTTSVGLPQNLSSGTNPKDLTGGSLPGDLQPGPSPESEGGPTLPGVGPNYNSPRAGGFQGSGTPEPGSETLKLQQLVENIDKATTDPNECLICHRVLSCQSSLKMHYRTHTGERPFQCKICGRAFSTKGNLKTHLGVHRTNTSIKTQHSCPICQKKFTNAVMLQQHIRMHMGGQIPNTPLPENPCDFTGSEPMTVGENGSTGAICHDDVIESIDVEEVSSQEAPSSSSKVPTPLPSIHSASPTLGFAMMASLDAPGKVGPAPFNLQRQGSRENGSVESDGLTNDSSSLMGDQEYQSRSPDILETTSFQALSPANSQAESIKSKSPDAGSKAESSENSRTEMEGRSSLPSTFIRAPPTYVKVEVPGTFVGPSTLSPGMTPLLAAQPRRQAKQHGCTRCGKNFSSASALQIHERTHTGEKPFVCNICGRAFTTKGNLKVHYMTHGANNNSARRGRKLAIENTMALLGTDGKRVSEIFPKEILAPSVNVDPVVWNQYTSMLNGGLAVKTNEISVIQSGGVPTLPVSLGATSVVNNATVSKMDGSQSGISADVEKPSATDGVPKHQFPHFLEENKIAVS
Put plainly: IHC on paraffin sections of human seminoma, primary antibody 1:100.

B1: 抗人SALL4兔单克隆抗体 (antibody, V domains shown)
VH: QSLEESGGRLVTPGGSLTLTCTVSGFSLSSNSITWVRQAPGKGLEWIGTMNIDNSTYYMSWAKGRLTISKTSTTVTLKMTSLTTEDTATYFCARIAVVSNTDIWGPGTLVTVSF
VL: AQALTQTPSSVSAAVGGTVTISCQSSQNVYDANALSWYQQKPGQPPKRLIYSASTLASGVPSRFKGSGSGTQFTLTISGVQCDDAASYYCAGVYYGKIGFGGGTEVVVKG
notes: also called 试验例2制备的抗人SALL4兔单克隆抗体; 识别人SALL4的兔单克隆抗体
On to B1, for which the binding result is “binds”.
